Experiment: soluble on expression in E. coli; label from the status in PepcDB or PDB records

| Sequence | soluble on expression in E. coli |
| --- | --- |
| MDRDWGGKTGGGGVASSEQTEVSRRERLRQLALETIDLKKDPYFMRNHLGGYECKLCLTLHTNEGNYLAHTQGRRHQMNLARRAAREAKEKPQTVAPPPKIVPKKTIKIGRPGYRIIKQRDPETDQLSLLFQIQYPEIAEDVQPRHRFMSSFEQKVERPDPKYQFLLFAAEPYETIAFKIPNWEIEKSEGNYYLHWDKDNKTFTLQIYFKPRSQPPVKNQQEIPSQQASVGNLMKQQRDPFAPIAFGT | soluble |
| MGSDKIHHHHHHMSSLLQQFHDEISLRGYSARTRNAYLYAITQLQHYANQPLDNITDEQLTAYFRYLNLEWHHSRATLKLQLNGIHFFYEHVLKRDFTIQLSLPKRPHKLPQLLSCQDIAALLYHCQNLKQRAMLALCYGCGLRVSELTHIKVADIDGQRQLLKVCQGKGACDRWVILSPTLLILLRQYWQAYHPVEWLFASTYHDVVYPLHESTFRKALAKAARLASITKPCSPHSLRHAYATHQLQAGMPLHQLQAQLGHHSIKSTERYLHWSPELGHQGCDLLASLGGMPWQPPTI | not soluble |
| MNWKQEFSRWLSYAELDAELKEQLENMKQDEKKIEDSFYKNLEFGTGGMRGELGAGTNRLNVYTVRKATQGLAKFIEKLGEEAKKRGVVVAYDSRHKSPEFAMEVAATLGAHGITTYVFESLRPTPVLSFAVRHLHTVSGIVLTASHNPPEYNGYKVYGEDGGQLPPKEADELISYVNAVEDELTVEVADVEQLKADGLLHMIGQEVDDAYAAELNNVIINKEMVQKVGKDLKIVFTPLHGTSNLSVRRGLAEVGFTDVTVVKEQELPDPNFSTVKSPNPEEHAAFEYAIRDGEKVGADVLIATDPDADRLGVAVRNHDGEFQVLTGNQTGALMLDYLLSQKKENGTLPENGVVLKTIVTSEIGRTIAKAYGLDTVDTLTGFKFIGEKIKQYEESGQYEFQFGYEESYGYLIRPFCRDKDAVQSVLFACEVAAYYKSQGKTLYDGLLEVFEKYGFFREDLVSLTLKGKDGAEQIQEMMATFRENPPKEVAGLTVVAVEDYKASIITSLQDGHKEEIHLPKSNVLKYQLEDGSWFCLRPSGTEPKIKFYFGVQDNSLQNSEQKLLTIKEDIMNRL | not soluble |
| MSLNISNVLFLLHQKFPDPLPDNPICTREETKLAGHLVNILKLAVDHDIDVEERDEVADETFSDWDSIEFEPNDGVIFSSPTELVFGGRVVTREEANTALDYYRSAKAGKRTLEAMRNRFRWITGRHDMDKLKLYEKDRDNFKESRRNLLKFLGERLYEEVKGRLDSGICLHDRDLKMIALDINKKETHVENFKACQTWITNWKRSYNIVSRKITKFVTRRYVRNKAATLQSAKDFVQGCRMDISSYGPEMIFNADQCGIQKELFGARSLAYLGEKSVERIVQSLSSLTHSFTFLPMIFMNGTLGPKAYMKIAEPTGHFPPSRPIPVCSNLEVHAGKSHIMTKDDMRVWLRNCVAHQQCPKKMLMIVDSWTSFKDHATIQSCMQNGVDLTIRNIPPGTTSLIQPLDVHFNGPWKTLIKNFTSYVMSFCPDYIIANRNNTIMMTSLLYHQVSAALFEPFLKYSWNKAGYTDSHDEFVTPADYCFGDVGEEECGFGGCSEFSFIRCARCNCQICFEHFVVDDQHFCPCP | not soluble |
| MSKLAELQAETREIIEDLLNDGSEPNALYIIEHHIAHHDFDLLEKIAVDAFKAGYEVSEAEEFKDDDGKPIFCFDIISEVELKAEIIDAQQKEILPLLEKHNGIYDGWGTYFEDPNADDDEYGDDGEFLDDEDEYGDDGEFFDDEDEEEPRVH | not soluble |
| MAHHHHHHMADAADTLLLSLEVEAAAARNAELSQTIEMLQDEVLRLRRANASLLACDARHCPKVSLQPVETPSATADVSRDESSAAADAREVFVILDDLLFEMADIRSRIILDERVDLTPRAFDSEATVAAHARRCLEEARKLKEAFVVKQHSTAAQVSELRRALGEQAEANQKQTAASALQCAMLERKYDELKRRYDEAVSRQDELVLDGVIQSPSQMLPRS | soluble |
| GMSEDHPLDRPVWNSLGGPQSELDVASGNLRRLDPAYGPFAAAAPGAEAGLASLLQGDADEIWLVEPEPVAPPPGTRVIRVAPLLQMIADGPVPSFDDPGIVALGETDVPEMTALALATEPGPWASGTWRYGQFYGVRIDGRLAAMAGERMRPAPNLAEVSGVCTWPEYRGRGLAARLIRKVIAGMAARGEVPYLHSYASNASAIRLYESLGFRARRAMTATLLGKST | soluble |
| MIELPVVPSASDRKSKPDWLRVKLPIGKEYTKLRALVDEHKLHTICQSGNCPNMGECWGAGTATFMILGNVCTRSCSFCAVATGRPTEYDIDEPKRVAEAVRLMNVKHCVITSVNRDELKDKGAEVWYQTVVRVKEESPQTTIETLIPDVKSDWASLERMISGGQEVVSHNMETVERLYRRVRPQAKYSRSLEEIQRIKAFGKRTKSGIMLGLGETKDEVLKAMDDLVAHGLDVLTLGQYLQPTKMHLEVAEFIHPDQFAEYKEIGLSKGLNYVESGPLVRSSYHAEKHI | not soluble |
| SQYKNISEKIVHIIQQEFDTDLTLESIAGRLHYNPNYLSSIFRKEMKISFSEYLSSYRHHIAKNWLTETTMSVKEISEKLKYKNPQNFIRSFKKLEGITPGKYRELKNHS | soluble |
| GPEAERAEMLAWFDRINAERRRAGMVAVLTRRCNLACPYCFEGGQAPEGDMSEETADLLAAMIEREYLAKGWRVDMDFYGGEPLLRPDLIRRIAEPLRAAGGGLFHGNMVSNGSLLNRAVMTDLTALGIESVKVTLDGPPQVHDRYRPYGGGAGSFHDILRGMGEVVDLVKIHVGGNFTRETWREYPALLDLLLAEGFTPDRLGTVRFTP | not soluble |
| MTADKLVFFVNGRKVVEKNADPETTLLAYLRRKLGLSGTKLGCGEGGCGACTVMLSKYDRLQNKIVHFSANACLAPICSLHHVAVTTVEGIGSTKTRLHPVQERIAKSHGSQCGFCTPGIVMSMYTLLRNQPEPTMEEIENAFQGNLCRCTGYRPILQGFRTFARDGGCCGGDGNNPNCCMNQKKDHSVSLSPSLFKPEEFTPLDPTQEPIFPPELLRLKDTPRKQLRFEGERVTWIQASTLKELLDLKAQHPDAKLVVGNTEIGIEMKFKNMLFPMIVCPAWIPELNSVEHGPDGISFGAACPLSIVEKTLVDAVAKLPAQKTEVFRGVLEQLRWFAGKQVKSVASVGGNIITASPISDLNPVFMASGAKLTLVSRGTRRTVQMDHTFFPGYRKTLLSPEEILLSIEIPYSREGEYFSAFKQASRREDDIAKVTSGMRVLFKPGTTEVQELALCYGGMANRTISALKTTQRQLSKLWKEELLQDVCAGLAEELHLPPDAPGGMVDFRCTLTLSFFFKFYLTVLQKLGQENLEDKCGKLDPTFASATLLFQKDPPADVQLFQEVPKGQSEEDMVGRPLPHLAADMQASGEAVYCDDIPRYENELSLRLVTSTRAHAKIKSIDTSEAKKVPGFVCFISADDVPGSNITGICNDETVFAKDKVTCVGHIIGAVVADTPEHTQRAAQGVKITYEELPAIITIEDAIKNNSFYGPELKIEKGDLKKGFSEADNVVSGEIYIGGQEHFYLETHCTIAVPKGEAGEMELFVSTQNTMKTQSFVAKMLGVPANRIVVRVKRMGGGFGGKVTRSTVVSTAVALAAYKTGRPVRCMLDRDEDMLITGGRHPFLARYKVGFMKTGTVVALEVDHFSNVGNTQDLSQSIMERALFHMDNCYKIPNIRGTGRLCKTNLPSNTAFRGFGGPQGMLIAECWMSEVAVTCGMPAEEVRRKNLYKEGDLTHFNQKLEGFTLPRCWEECLASSQYHARKSEVDKFNKENCWKKRGLCIIPTKFGISFTVPFLNQAGALLHVYTDGSVLLTHGGTEMGQGLHTKMVQVASRALKIPTSKIYISETSTNTVPNTSPTAASVSADLNGQAVYAACQTILKRLEPYKKKNPSGSWEDWVTAAYMDTVSLSATGFYRTPNLGYSFETNSGNPFHYFSYGVACSEVEIDCLTGDHKNLRTDIVMDVGSSLNPAIDIGQVEGAFVQGLGLFTLEELHYSPEGSLHTRGPSTYKIPAFGSIPIEFRVSLLRDCPNKKAIYASKAVGEPPLFLAASIFFAIKDAIRAARAQHTGNNVKELFRLDSPATPEKIRNACVDKFTTLCVTGVPENCKPWSVRV | soluble |
| MGSDKIHHHHHHMRKKPLTIFSDGTLTRRENTLYFESAKGRKPLAIEGIYDIYIYGHVNITSQALHYIAQKGILIHFFNHYGYYDGTFYPRETLLSGDLIIRQAEHYLNKEKRLFLAKSFVTGGTKNMERNLKNWGIKAKLSDYLDELNDARKITEIMNVEARIRQEYYAKWDENLPEEFKIVKRTRRPPKNEMNALISFLNSRLYATIITEIYNTQLAPTISYLHEPSERRFSLSLDLSEIFKPIIADRVANRLVKKGSLKKEHFREDLNGVLLTEEGMKIVTKAYNEELQKSVKHPKIGSNVTRQRLIRLEAYKLIKHLVGVEEYKPLVAWF | not soluble |
| MGTYTVNVSSLNVRTGPSTSHTVLGSVNKGKTVQVVSEVQDWFKINFNGGTGYVSKDFVTKGGSAVLEHHHHHH | not soluble |
| VLSARCHIRHIGSPGKDARCAHLSATLRPGIGISPTNVGNATVLADGTPAKPIQGAETMQRARHTGSCFSANARGPAISSGNPSRAGCGVPSSTTTPSSTPQAIRLLACTDSDALTVTRTAR | not soluble |
| MGSDKIHHHHHHMEKQYEYVHEKFRHLVIASNQERIEFLDEPRWVGYAVANKIIDNLVSLMNKPKRPRMFNLLVVGDSNNGKTTLIRHFYDLYGIPFVDSQSDGIRPIILAEAPPSANEKELYISLLERFYVPYRPTDSVAKLRYQTIHLFREYKVKMLIIDEFHSLLVGTPRLQRQVMNAIKMLCNELQIPIVGVGTKDAIRVLHTDPQHASRFDVAELPTWKLDKDFQKLLFQFQGILPLKKCSNLQSPELATKIHTISGGNLGNVHRLLTACAIEAITTGTEQITLDIIEHNSWVQPTQGLRKIIG | not soluble |
| ATALAGSNGVCIAYYITDGRNPTFKLKDIPDKVDMVILFGLKYWSLQDTTKLPGGTGMMGSFKSYKDLDTQIRSLQSRGIKVLQNIDDDVSWQSSKPGGFASAAAYGDAIKSIVIDKWKLDGISLDIEHSGAKPNPIPTFPGYAATGYNGWYSGSMAATPAFLNVISELTKYFGTTAPNNKQLQIASGIDVYAWNKIMENFRNNFNYIQLQSYGANVSRTQLMMNYATGTNKIPASKMVFGAYAEGGTNQANDVEVAKWTPTQGAKGGMMIYTYNSNVSYANAVRDAVKN | soluble |
| MSYSKPLAYPSQKCVIKHMEVNSRFKLSHQSPSIRKIEKSTPLRIDSLTLKLDQCSVKINNILHTFRKEKLPKNMQLPQAFMCLMSKLFCGRRDPIQVKTLSIECKGSLQLPAGLCLKVSHLEILGSGVDKIADDLQPLLRGSKLQSITVNNDFNIHHPIFKTAHLLILKNPNKNLFRATAASNVMVKSTCQFLDLFDKIVELIRNWQSYGQKIGAIWNFSMRQEQFALLSLVQLRKLPGASYKGHEKFSESGRSIIIPIDNSAEVHAFVKKEQDDCNLNVIVRRRQF | soluble |
| MSPAPVQVMGVLNVTDDSFSDGGCYLDLDDAVKHGLAMAAAGAGIVDVGGESSRPGATRVDPAVETSRVIPVVKELAAQGITVSIDTMRADVARAALQNGAQMVNDVSGGRADPAMGPLLAEADVPWVLMHWRAVSADTPHVPVRYGNVVAEVRADLLASVADAVAAGVDPARLVLDPGLGFAKTAQHNWAILHALPELVATGIPVLVGASRKRFLGALLAGPDGVMRPTDGRDTATAVISALAALHGAWGVRVHDVRASVDAIKVVEAWMGAERIERDG | soluble |
| YVTNDLANSMKDRGTMLADSLRVDFAIINDPSKIPVSGTGPYTYTFYVKNIGKDSIAFSSNSIQVFIDGNIIPPANLTFTDVNGNSISSLDPGEVGAIQVTLGNALDPGYHRIQVVLENGKERVLIFKI | not soluble |
